Assay results: patent publication US20210393800A1, “PREPARATION AND APPLICATION OF SUPRAMOLECULAR SELF-ASSEMBLED HYALURONIC ACID HYDROGEL” (PHI BioMed Inc., priority 2018, published 2021)

Test: Protein release experiment (EGF in supernatant by HPLC)
Format: physicochemical
Details: 20 ug/ml in HA-Ad/HA-CD hydrogel, 500 ul PBS; for amount of EGF released over time (rank order): supernatant by HPLC according to date
Experimental: Aldehyde groups were introduced to the hyaluronic acid-adamantane (HA-Ad) derivative and hyaluronic acid (HA) using […].
The HA-Ad derivative and HA, to which the aldehyde group had been introduced, were allowed to react with an EGF protein using sodium cyanoborohydride to induce an aldehyde-amine reaction, thereby preparing conjugates. Through the aldehyde-amine reaction, a HA-Ad-EGF conjugate and a HA-EGF conjugate were prepared.
Each of EGF, the prepared HA-Ad-EGF conjugate, and the prepared HA-EGF conjugate was added at a concentration of 20 ug/ml to a 5 wt % hyaluronic acid-adamantane (HA-Ad) derivative solution. 50 ul of a 5 wt % hyaluronic acid-cyclodextrin (HA-CD) derivative solution was added to 50 ul of each of the resulting solutions and then mixed to prepare a hydrogel.
The hydrogel was input into an E-tube and centrifuged to remove air bubbles inside the gel. 500 ul of PBS was added to each hydrogel.
The concentration of EGF included in a supernatant was analyzed by high-performance liquid chromatography (HPLC) according to date.

EGF: EGF protein used by itself in preparation of the hydrogel
amount of EGF released over time (rank order): HA-Ad-EGF<HA-EGF<EGF

HA-Ad-EGF: EGF protein bound to aldehyde-modified HA-Ad derivative through an aldehyde-amine reaction; carried in the hydrogel
protein release behaviour: release a constant concentration of protein most slowly for a long period of time
amount of EGF released over time (rank order): HA-Ad-EGF<HA-EGF<EGF

HA-EGF: EGF protein bound to aldehyde-modified hyaluronic acid through an aldehyde-amine reaction; carried in the hydrogel
amount of EGF released over time (rank order): HA-Ad-EGF<HA-EGF<EGF
